Measured values: patent US20160199455

Tested on: T1, rBDD FVIII (recombinant B-domain deleted FVIII, REFACTO)
T1 sequence: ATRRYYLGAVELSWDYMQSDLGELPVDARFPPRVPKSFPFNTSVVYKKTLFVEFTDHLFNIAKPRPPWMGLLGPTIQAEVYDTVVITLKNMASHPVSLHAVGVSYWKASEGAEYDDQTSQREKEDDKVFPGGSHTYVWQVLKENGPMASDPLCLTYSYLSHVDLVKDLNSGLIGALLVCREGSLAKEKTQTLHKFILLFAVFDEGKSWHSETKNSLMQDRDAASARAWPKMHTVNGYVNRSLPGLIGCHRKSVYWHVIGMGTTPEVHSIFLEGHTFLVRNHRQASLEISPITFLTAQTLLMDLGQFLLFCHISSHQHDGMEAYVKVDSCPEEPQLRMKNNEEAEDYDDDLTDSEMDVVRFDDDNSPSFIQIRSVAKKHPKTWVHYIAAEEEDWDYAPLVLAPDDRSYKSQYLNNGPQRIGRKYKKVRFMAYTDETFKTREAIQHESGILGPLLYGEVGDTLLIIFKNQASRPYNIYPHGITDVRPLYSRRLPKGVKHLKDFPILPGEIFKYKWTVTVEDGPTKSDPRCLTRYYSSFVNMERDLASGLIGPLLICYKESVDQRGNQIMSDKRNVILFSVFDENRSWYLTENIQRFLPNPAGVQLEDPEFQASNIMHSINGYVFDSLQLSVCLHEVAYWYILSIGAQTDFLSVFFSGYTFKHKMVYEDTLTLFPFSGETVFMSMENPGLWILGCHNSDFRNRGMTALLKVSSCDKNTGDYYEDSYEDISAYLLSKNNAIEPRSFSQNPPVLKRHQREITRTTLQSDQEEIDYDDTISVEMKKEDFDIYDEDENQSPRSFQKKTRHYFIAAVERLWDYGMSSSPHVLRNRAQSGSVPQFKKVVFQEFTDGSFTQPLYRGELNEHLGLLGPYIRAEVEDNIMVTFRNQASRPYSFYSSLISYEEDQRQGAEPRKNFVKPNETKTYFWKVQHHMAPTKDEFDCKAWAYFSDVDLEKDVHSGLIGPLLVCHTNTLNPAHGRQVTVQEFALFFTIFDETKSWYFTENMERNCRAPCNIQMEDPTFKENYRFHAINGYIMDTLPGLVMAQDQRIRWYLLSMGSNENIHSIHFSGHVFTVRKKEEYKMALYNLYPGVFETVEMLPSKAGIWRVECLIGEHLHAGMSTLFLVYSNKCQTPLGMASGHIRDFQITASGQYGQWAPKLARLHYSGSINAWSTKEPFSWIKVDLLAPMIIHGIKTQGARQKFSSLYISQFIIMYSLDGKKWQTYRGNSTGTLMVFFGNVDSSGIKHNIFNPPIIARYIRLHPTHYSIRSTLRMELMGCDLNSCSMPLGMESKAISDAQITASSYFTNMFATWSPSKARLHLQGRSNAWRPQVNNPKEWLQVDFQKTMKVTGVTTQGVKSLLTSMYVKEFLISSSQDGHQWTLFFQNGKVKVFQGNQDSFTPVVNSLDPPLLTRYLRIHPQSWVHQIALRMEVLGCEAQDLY

Row | Substance | Km (activation of Factor X by the Xase complex) [µM] | Vmax (activation of Factor X by the Xase complex) [nM/min] | Vmax (FXa generation, varying FIXa) [nM/min]
1 | Factor X (FX) | 0.051 | 73.5 | 
2 | activated Factor IX (FIXa) |  |  | 4
